{
  "source": "patent US20200231654A1",
  "about": "(published 2020)",
  "binders": {"B1": {"name": "M91002_G3 (designed binder)", "chain": "GSGMKETAAAKFERQHMDSPDLGTDDDDKAMAENLYFQGDPQFGLFSKYRTPNCRTGRGPACQMGFQPVCGSDMSTYANECTLCMKIREGGHNIKIIRNGPCGGG"}, "B2": {"name": "M91011 (designed binder)", "chain": "GSGMKETAAAKFERQHMDSPDLGTDDDDKAMADIGSANSDPQFGLFSKYRTPNCMMYKYAQCSHKSQPVCGSDMSTYANECTLCMKIREGGHNIKIIRNGPCGASAAA"}, "B3": {"name": "M91002_G2 (designed binder)", "chain": "GSGMKETAAAKFERQHMDSPDLGTDDDDKAMAENLYFQGDPQFGLFSKYRTPNCRTGRGPACQMGFQPVCGSDMSTYANECTLCMKIREGGHNIKIIRNGPCGG"}, "B4": {"name": "M91005 (designed binder)", "chain": "GSGMKETAAAKFERQHMDSPDLGTDDDDKAMADIGSANSDPQFGLFSKYRTPNCRKRGGPSCQMSYNPVCGSDMSTYANECTLCMKIREGGHNIKIIRNGPCGASAAA"}, "B5": {"name": "M91005_D1G-Fc-01 (Fc fusion)", "chain": "GSGMKETAAAKFERQHMDSPDLGTDDDDKAMADIGSANSGPQFGLFSKYRTPNCRKRGGPSCQMSYNPVCGSDMSTYANECTLCMKIREGGHNIKIIRNGPCGASAAAGGGGSDKTHTCPPCPAPELLGGPSVFLFPPKPKDTLMISRTPEVTCVVVDVSHEPEVKFNWYVDGVEVHNAKTKPREEQYNSTYRVVSVLTVLHQDWLNGKEYCKVSNKALPAPIEKTISKAKGQPREPQVYTLPPSREEMTKNQVSLTCLVGFYPSDIAVEWESNGQPENNYKTTPPVLDSDGSFFLYSKLTVDKSRWQQNVFSCSVMHEALHNHYTQKSLSLSPGK"}, "B6": {"name": "M91002_G0 (designed binder)", "chain": "GSGMKETAAAKFERQHMDSPDLGTDDDDKAMAENLYFQGDPQFGLFSKYRTPNCRTGRGPACQMGFQPVCGSDMSTYANECTLCMKIREGGHNIKIIRNGPC"}},
  "key": {"active hMMP-9(cat)_His6 [1]": {"target": "T1, active hMMP-9(cat)_His6 (UniProt P14780 107-449)", "T1 sequence (P14780 107-449)": "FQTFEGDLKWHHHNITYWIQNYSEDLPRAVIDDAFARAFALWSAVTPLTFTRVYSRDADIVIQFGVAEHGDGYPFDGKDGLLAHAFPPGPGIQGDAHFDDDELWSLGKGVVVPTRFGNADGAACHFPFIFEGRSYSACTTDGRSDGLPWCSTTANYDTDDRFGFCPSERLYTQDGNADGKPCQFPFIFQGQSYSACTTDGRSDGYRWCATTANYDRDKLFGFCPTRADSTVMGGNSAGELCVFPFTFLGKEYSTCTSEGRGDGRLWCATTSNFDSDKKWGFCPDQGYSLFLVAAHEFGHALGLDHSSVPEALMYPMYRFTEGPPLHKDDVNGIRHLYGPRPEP", "test": "enzyme inhibition; substrate peptide"}, "P421A": {"target": "P421A", "test": "substrate peptide enzyme inhibition"}, "S413Q": {"target": "S413Q", "test": "substrate peptide enzyme inhibition"}, "E111P": {"target": "E111P", "test": "substrate peptide degradation inhibition"}, "G112R": {"target": "G112R", "test": "substrate peptide degradation inhibition"}, "T109F": {"target": "T109F", "test": "substrate peptide degradation inhibition"}, "P180A": {"target": "P180A", "test": "substrate peptide degradation inhibition"}, "Q108N": {"target": "Q108N", "test": "substrate peptide degradation inhibition"}, "G186A": {"target": "G186A", "test": "substrate peptide degradation inhibition"}, "D113K": {"target": "D113K", "test": "substrate peptide degradation inhibition"}, "I198V": {"target": "I198V", "test": "substrate peptide degradation inhibition"}, "D410E": {"target": "D410E", "test": "substrate peptide enzyme inhibition"}, "L418A": {"target": "L418A", "test": "substrate peptide enzyme inhibition"}, "L114P": {"target": "L114P", "test": "substrate peptide degradation inhibition"}, "P196T": {"target": "P196T", "test": "substrate peptide degradation inhibition"}, "active hMMP-9(cat)_His6 [2]": {"target": "T1, active hMMP-9(cat)_His6", "test": "enzyme inhibition; substrate peptide", "remark": "listed apart in the source"}},
  "note": "Where two headings read alike, the source gives them in different places.",
  "data": [
    {"binder": "B1", "values": [
      {"measurement": "IC50", "setting": "active hMMP-9(cat)_His6 [1]", "result": 3.5, "unit": "nM"}
    ]},
    {"binder": "B2", "values": [
      {"measurement": "IC50", "setting": "P421A", "result": 8.7, "unit": "nM"},
      {"measurement": "IC50", "setting": "S413Q", "result": 28, "unit": "nM"},
      {"measurement": "IC50", "setting": "E111P", "result": 23, "unit": "nM"},
      {"measurement": "IC50", "setting": "G112R", "result": 15, "unit": "nM"},
      {"measurement": "IC50", "setting": "T109F", "result": 15, "unit": "nM"},
      {"measurement": "IC50", "setting": "P180A", "result": 24, "unit": "nM"},
      {"measurement": "IC50", "setting": "Q108N", "result": 21, "unit": "nM"},
      {"measurement": "IC50", "setting": "G186A", "result": 16, "unit": "nM"},
      {"measurement": "IC50", "setting": "D113K", "result": 21, "unit": "nM"},
      {"measurement": "IC50", "setting": "I198V", "result": 16, "unit": "nM"}
    ]},
    {"binder": "B3", "values": [
      {"measurement": "IC50", "setting": "active hMMP-9(cat)_His6 [1]", "result": 3.5, "unit": "nM"}
    ]},
    {"binder": "B4", "values": [
      {"measurement": "IC50", "setting": "P421A", "result": 23, "unit": "nM"},
      {"measurement": "IC50", "setting": "S413Q", "result": 30, "unit": "nM"},
      {"measurement": "IC50", "setting": "D410E", "result": 22, "unit": "nM"},
      {"measurement": "IC50", "setting": "L418A", "result": 9.3, "unit": "nM"},
      {"measurement": "IC50", "setting": "E111P", "result": 31, "unit": "nM"},
      {"measurement": "IC50", "setting": "G112R", "result": 19, "unit": "nM"},
      {"measurement": "IC50", "setting": "T109F", "result": 15, "unit": "nM"},
      {"measurement": "IC50", "setting": "P180A", "result": 25, "unit": "nM"},
      {"measurement": "IC50", "setting": "Q108N", "result": 20, "unit": "nM"},
      {"measurement": "IC50", "setting": "G186A", "result": 15, "unit": "nM"},
      {"measurement": "IC50", "setting": "L114P", "result": 22, "unit": "nM"},
      {"measurement": "IC50", "setting": "P196T", "result": 18, "unit": "nM"},
      {"measurement": "IC50", "setting": "D113K", "result": 21, "unit": "nM"},
      {"measurement": "IC50", "setting": "I198V", "result": 16, "unit": "nM"}
    ]},
    {"binder": "B5", "values": [
      {"measurement": "IC50", "setting": "active hMMP-9(cat)_His6 [2]", "result": 4.3, "unit": "nM"}
    ]},
    {"binder": "B6", "values": [
      {"measurement": "IC50", "setting": "active hMMP-9(cat)_His6 [1]", "result": 3.6, "unit": "nM"}
    ]}
  ]
}
